Key:
[1] = target: SARS-CoV-2 Spike protein Trimer (Wild type) (SARS-CoV-2) (UniProt P0DTC2); experiment: single-molecule force spectroscopy
[2] = target: SARS-CoV-2 Spike Trimer (B.1.1.529/Omicron) (SARS-CoV-2) (UniProt P0DTC2); experiment: single-molecule force spectroscopy

With “H84T-banana lectin (H84T-BanLec) (from UniProt Q8L5H4 1-141) (designed binder)” the IC50 [1] was 5.2 nM, the koff [1] was 0.046 s⁻¹ and the kon [1] was 99800 M⁻¹ s⁻¹. For the same substance, the IC50 [2] was 2.6 nM.

Reference: paper PMC9519379 (Cell Reports Medicine, 2022)
